Consider four molecules from patent US20240084003A1 (SIMCERE ZAIMING PHARMACEUTICAL, published 2024).

Broadly, the Kd is the concentration at which binding is half-saturated. Broadly, the koff is a measure of how fast the partners let go of each other. By kon is commonly meant a measure of how fast the partners come together.

One assay addresses T1, human CD22 domain1-4-His (human, UniProt P20273 20-425).
T1 construct: also called hCD22 domain1-4-His; not shown: His tag
T1 sequence: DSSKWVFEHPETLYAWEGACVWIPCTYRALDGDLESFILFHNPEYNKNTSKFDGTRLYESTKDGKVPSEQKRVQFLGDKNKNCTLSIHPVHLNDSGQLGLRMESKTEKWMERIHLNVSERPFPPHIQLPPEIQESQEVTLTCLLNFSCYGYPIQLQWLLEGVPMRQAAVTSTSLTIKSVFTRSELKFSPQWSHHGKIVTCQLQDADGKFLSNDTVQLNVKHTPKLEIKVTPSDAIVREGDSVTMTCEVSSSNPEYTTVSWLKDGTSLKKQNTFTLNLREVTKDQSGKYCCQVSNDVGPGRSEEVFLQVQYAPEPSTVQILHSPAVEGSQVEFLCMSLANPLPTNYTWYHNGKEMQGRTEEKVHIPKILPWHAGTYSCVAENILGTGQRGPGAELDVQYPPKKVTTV
As to the kind of experiment: ELISA, plate coated with human CD22 domain1-4-His. (In general: ELISA stands for enzyme-linked immunosorbent assay.)

For assay [1], the target named is T2, rhesus monkey CD22-ECD-His protein (rhesus monkey, UniProt H9G1X2 18-686).
T2 construct: extracellular domain; also called monkey CD22 protein
T2 sequence: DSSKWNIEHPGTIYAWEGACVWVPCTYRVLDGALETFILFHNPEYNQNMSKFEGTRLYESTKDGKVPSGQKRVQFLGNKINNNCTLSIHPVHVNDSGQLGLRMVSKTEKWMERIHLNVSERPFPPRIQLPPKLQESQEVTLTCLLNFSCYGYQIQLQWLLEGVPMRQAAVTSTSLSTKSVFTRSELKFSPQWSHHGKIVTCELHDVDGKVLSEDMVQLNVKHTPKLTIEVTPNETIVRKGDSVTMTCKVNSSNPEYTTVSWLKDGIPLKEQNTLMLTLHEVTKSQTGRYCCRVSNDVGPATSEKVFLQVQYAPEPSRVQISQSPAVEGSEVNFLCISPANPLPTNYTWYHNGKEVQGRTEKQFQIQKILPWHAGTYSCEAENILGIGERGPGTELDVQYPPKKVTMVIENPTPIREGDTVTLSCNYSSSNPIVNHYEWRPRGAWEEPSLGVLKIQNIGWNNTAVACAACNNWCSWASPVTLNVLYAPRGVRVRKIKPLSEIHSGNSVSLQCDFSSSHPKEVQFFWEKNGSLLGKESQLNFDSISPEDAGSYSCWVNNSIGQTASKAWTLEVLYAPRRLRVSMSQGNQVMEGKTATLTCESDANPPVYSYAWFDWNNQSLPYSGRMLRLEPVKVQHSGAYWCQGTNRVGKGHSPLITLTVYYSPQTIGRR
Description: SPR (Biacore), antibody captured on Protein A chip, rhesus CD22 in solution. In general terms: Surface plasmon resonance follows binding to a sensor surface in real time, without labels.

In assay [2] the target is T3, human CD22-ECD-His protein (human, UniProt P20273 20-687).
T3 construct: Recombinant, from HEK293E cells; also called hCD22-ECD-His; human CD22-His protein; not shown: His tag
T3 sequence: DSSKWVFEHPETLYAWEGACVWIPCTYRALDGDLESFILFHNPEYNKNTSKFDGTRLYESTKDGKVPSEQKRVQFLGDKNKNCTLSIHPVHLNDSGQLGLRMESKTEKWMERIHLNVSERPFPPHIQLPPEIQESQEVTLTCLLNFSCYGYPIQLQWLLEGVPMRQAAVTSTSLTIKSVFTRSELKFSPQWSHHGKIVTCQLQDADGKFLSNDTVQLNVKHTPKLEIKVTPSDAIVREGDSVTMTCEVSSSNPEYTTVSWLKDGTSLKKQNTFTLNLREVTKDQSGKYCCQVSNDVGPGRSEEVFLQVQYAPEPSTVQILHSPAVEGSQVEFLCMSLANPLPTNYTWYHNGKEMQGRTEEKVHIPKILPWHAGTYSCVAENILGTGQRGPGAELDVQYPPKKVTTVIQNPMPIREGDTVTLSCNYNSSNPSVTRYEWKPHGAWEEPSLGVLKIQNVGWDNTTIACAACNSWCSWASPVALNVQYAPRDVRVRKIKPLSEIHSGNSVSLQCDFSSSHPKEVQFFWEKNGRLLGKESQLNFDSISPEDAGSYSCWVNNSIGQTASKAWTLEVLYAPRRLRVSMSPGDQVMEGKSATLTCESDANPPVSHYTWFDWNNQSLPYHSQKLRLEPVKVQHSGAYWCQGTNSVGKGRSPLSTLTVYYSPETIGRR
Description: SPR (Biacore), antibody captured on Protein A chip, CD22-ECD-His in solution. The essentials:
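Antibody captured on Protein A chip, then human CD22-ECD-His injected for 240 s at 30 μL/min, 5 concentrations from 200 nM (1:1 dilution), dissociation up to 600 s, in HBS-EP+ at 25° C. Responses double-referenced; apparent KD and kinetic constants fitted to a Langmuir 1:1 model.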

B1: F1.192.1 (antibody, human IgG1, kappa, V domains shown)
VH: AVQLQQSGVELVRPGASVKLSCTGSDFNIKEDYIHWVKQRPEQGLEWIGWIDPENGDTEYASKFQGKATITADTSSNTAYLQLSSLTSEDTAVYYCATYGSLDYWGQGTTLTVSS
VL: DIKMTQSPSSMYAFLGERVTITCKASQGINSFLTWFQQKPGKSPKTLIYRANRLVDGVPSRFSGSGSGQDYSLTISSLEYEDVGIYYCLQYDEFPRTFGGGTKLEIKR
notes: Chimeric IgG1 kappa
On to B1, for which the binding result with human CD22 domain1-4-His is “no binding”. In assay [1], this molecule had a Kd of 23.1 nM, a koff of 0.0016 s⁻¹ and a kon of 69200 M⁻¹ s⁻¹. Moreover, in assay [2], the Kd is 1.08 nM, the koff is 0.000244 s⁻¹ and the kon was 225000 M⁻¹ s⁻¹.

B2: F2.151.13 (antibody, human IgG1, lambda, V domains shown)
VH: QVHLQQPGTELMKPGASVKLSCKATGYTFRDYWLEWVKQRPGHGLEWIGEILPGSGNAYYNEKFKGKATFTADTSSNTAYMQLSSLTTEDSAIYYCARVYSNWYFDAWGKGTTVTVSS
VL: QAVVTQESALTTSPGETVTLTCRSSTGAVTTSNYANWVQEKPDHLFTGLIGGTNNQAPGVPARFSGSLIGDKAALTISGAQTEDEAIYFCALWFSNHWVFGGGTKLTVLG
notes: Chimeric IgG1 lambda
Consider B2, for which, in the assay with human CD22 domain1-4-His, the binding result is “no binding”. Moreover, in assay [1], the Kd was 27.5 nM, the koff was found to be 0.000528 s⁻¹ and the kon worked out at 19200 M⁻¹ s⁻¹. In assay [2], this molecule displayed a Kd of 22.7 nM, a koff of 0.000533 s⁻¹ and a kon of 23500 M⁻¹ s⁻¹.

B3: F1.200.11 (antibody, human IgG1, kappa, V domains shown)
VH: QNQLVQSGPELKKPGETVKISCKASGYTFTTAGMQWVQKMPGKGFKWIGWINTLSGEPKYAEDFKGRFAFSLETSATTAYLQISNLKNEDTATYFCARAYYSNLYWYFDVWGTGTTVTVSS
VL: DIVMTQSQKFMSTTVGDRVTITCKASQNVVTAVAWYQQKPGQSPKVLIYSASNRYSGVPDRFTGSGSGTDFTLTISNMHSEDLANYFCHQYSSYPFTFGSGTKLEIKR
notes: Chimeric IgG1 kappa
As for B3, the binding result in the assay with human CD22 domain1-4-His was “no binding”. In assay [1], this molecule came in with a dissociation constant (Kd) of 44.2 nM, a koff of 0.000596 s⁻¹ and a kon of 13500 M⁻¹ s⁻¹. For the same molecule, in assay [2], binding was put at a Kd of 102 nM, the dissociation rate constant (koff) was determined as 0.00102 s⁻¹ and the kon came to 9980 M⁻¹ s⁻¹.

B4: F1.105.11 (antibody, human IgG1, kappa, V domains shown)
VH: EVQLQQSGPVLVKPGASVKMSCKASGYTFSDYFMNWVKQSHGKSLEWIGIINSYSGGTSYNQKFKGKATLTVDKSSSTAYMELNSLTSEDSAVYYCARWMDYWGQGTSVTVSS
VL: DVQITQSPSYLAASPGETITINCRTSESISKHLAWYQEKPGKTNKLLIYSGSTLQSGIPSRFSGSGSGTDFTLTISSLEPEDFAMYYCQQHNEYPWTFGGGTKLEIKR
notes: Chimeric IgG1 kappa
As to B4, the binding result with human CD22 domain1-4-His was “no binding”. Moreover, in assay [1], the Kd was 17.3 nM, the off-rate (koff) was determined as 0.000448 s⁻¹ and the kon stood at 25900 M⁻¹ s⁻¹. In assay [2], this molecule came in with a Kd of 0.514 nM, a koff of 0.000154 s⁻¹ and an association rate constant (kon) of 299000 M⁻¹ s⁻¹.
